Ends that are not written are not given here. Pam2 = S-(2,3-dihydroxypropyl)-cysteine acylated by two palmitic acids (lipo-cysteine)

Sequences and labels used below:
B1: CBLB601 (R-PAM2C-SKKKK) (peptide)
peptide: CSKKKK
modifications: N-terminal Cys is the R-Pam2 lipoamino acid (S-(2,3-dihydroxypropyl)-cysteine acylated by two palmitic acids, R stereoisomer)

The assay concerns the target TLR2/TLR6 heterodimer. The assay is described as follows: cell-based or functional assay.
On to QGEESNDK (not fully specified (N-terminus)) [CBLB614], for which the NF-κB activation was found to be 200.

Consider B1, for which the NF-κB activation came out at 100.

VQGEESNDK (not fully specified (N-terminus)) [CBLB612] came in with an NF-κB activation of 200.

In turn, Pam2-GSHHM [CBLB604] displayed an NF-κB activation of 0.

The molecule Pam2-GQHHH [CBLB602] showed an NF-κB activation of 0.

Consider Pam2-SQMHH [CBLB605], for which the NF-κB activation was 2.

As for GETDKEGKIIRIFDNSF (not fully specified (N-terminus)) [CBLB611], the NF-κB activation stood at 0.

The molecule {R‑Pam2}-GDPKHPKSF [CBLB606] returned an NF-κB activation of 100.

Take Pam2-GDPKHPKSFTGWVA [CBLB607]: the NF-κB activation amounted to 2.

In turn, Pam2-FEPPPATTTKSK [CBLB608] registered an NF-κB activation of 2.

Take Pam2-GQHHM [CBLB603]: the NF-κB activation stood at 0.

The molecule GEESN (not fully specified (N-terminus)) [CBLB615] displayed an NF-κB activation of 200.
